Source: the nanobody polyreactivity screen of Harvey et al. (2022)

experiment: yeast display, Sf9 membrane polyspecificity reagent, FACS + sequencing; frameworks hold sequencing errors
Procedure, shortened: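 Genes from sorted yeast were amplified by colony PCR, read by MiSeq 2 × 250 sequencing and filtered on CDR length. These cells carried a synthetic nanobody library in Saccharomyces cerevisiae BJ5465 and were sorted by FACS into low and high (top ~1%) gates on anti-HA and streptavidin fluorescence. Polyreactivity is labelled according to the gate of origin.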

Row | Sequence | polyreactivity (PSR sort gate)
1 | QVQLVESGGGLVQAGGSLRLSSAASGRTGVNAMGWDRHAPGKERELGAAINNGDSTYYADSVKGRFTISRDNAKNTVYLQMNSLTPEDTAVYDCAAGLDEGDYWQESDYWGQGTQVTVSS | low polyreactivity
2 | QVQLVESGGGLVQAGGSLRLSCAASGSTFWYNMGWYRQAPGKERELVAAISYSSGRTYYADSVKGRFTISRDNAKNTVYLQMNSLKPEDTAVYYCAARYPRTRRYGYWGQGTQVTVSS | high polyreactivity
3 | QVQLVESGGGLVQAGGSLRLSCAASGITFYYYAMGWYRQAPGKERELVAAISSRGGSTYYADSVKGRFTISRDNAKNTVYLQMNSLKPEDTAVYYCAALYDYWGQGTQVTVSS | high polyreactivity
4 | QVQLVESGGGLVQAGGSLRLSCAASGNTFAVNAMGWYRQAPGKERELVAAISKRGGRTYYADSVKGRFTISRDNAKNTVYLQMNSLKPEDTAVYYCAADLSNSMDYWGQGTQVTVSS | high polyreactivity
5 | QVQLVESGGGLVQAGGSLRLSCAASGIIFYEYVMGWYRQAPGKERELVATISSIGGSTYYADSVKGRFTISRDNAKNTVYLQMNSLKPEDTAVYYCAADPDPVVSRGGNWYGDDYWGQGTQVTVSS | high polyreactivity
6 | QVQLVESGGGLVQAGGSLRLSCAASGFTFDQYAMGRNRQAPGKERELVAVISSGGSTYYADSVKGRFTFSRDNAKNTVYLQMNSLKQEDTAVYYCNRDRQRRYDYWGQGTQVTLSS | high polyreactivity
7 | QVQLVESGGGLVQAGGSLRLSCAASGRIFYANAMGWYRQAPGKERELVASISTTGDSTYYADSVKGRFTISRDNAKNTDYLQMNSLKPEDTAVYYCNTRGSEYLWYGYDYWGQGTQVTVSS | low polyreactivity
8 | QVQVVESGGALVQAGGSLRLSCAASGRTFDWNAMGWYRQAPGKERELVAAITYSGGGTYYADSVKVRFTISRDHATNTVYLQMNSLKPEDTAVYYCAAGYPGTWSYYYWGQGTQVTVSS | low polyreactivity
9 | QVQLVESGGGLVQAGGSLRLSCAASGSIFRIYAMGWYRQAPGKERELVAAIDSSGGSTYYADSVKGRFTISRDNAKNTVYFQMNSLKPEDTAVYYCNATFGYPFVDYDDYWGQGTQVTVSS | low polyreactivity
10 | QVQLVESGGGLVQAGGSLRLSCAASGSTSGFYAMGWYRQAPGKERELVAAIDVSGGSTYYADSVKGRFTISRDNAKNTVYLQIHSLKPEDTAVYYCAAYRRNVWSARYGYWGQGTQVTVSS | high polyreactivity
11 | QVQLVESGGGLVQAGGSLRLSCAVSGGLFSFYAMGWYRQAPGKERELVAAISSGGTTYYADSVKGRFTISRDNAKNTVYLQMNSLKPEDTAVYYCALLVGHNYWGQGTQVTVSS | low polyreactivity
12 | QVQLVESGGGLVQAGGSHRLSCAASGSTFGSNAMGWYRQAPGKERELVAARTIGGSTNYADSVKGRFTISRDNAKNTVYLEMTSLKPEETAVYYCNADPQQSKLWTYFFGFPGYYWGQGTQVTVSS | low polyreactivity
13 | QVQLVESGGALVQAGGTRRLSCAASASTYPYAMGWYRQDPAKERELVAAITWSGGNTYFADSVKGRFTISRDNAKNSVYLQMNSMKPEDTAFYYCAALIGYRVFRYNYWGQGTQLTVSS | high polyreactivity
14 | QVQLVESGGGLVQAGGSLRLSCAASGLIFRGYAMGWYRQAPGKERELVAAISRSGGRTYYADSVKGRYTISRDNAKNTVYLQMNSLKPVDTAVYYCAAQWLYLEYDYWGQGTQVTVSS | high polyreactivity
15 | QVQLVESGGGLVQAGGSLRLSCAASGRIFGIYAMGWYRQAPGKERELVATITDSDDSTYYADSVKGRFTISRDNAKNTVYLQMNSLKPEDTAVYYCAAADGIYARYFFSRFPRFDYWGQGTQVTVSS | low polyreactivity
16 | QVQLVESGGGLVQAGGSLRLSCAASGSIISGYAMGWYRQAPGQERELVAAISRSGGRTYYADSVKGRFTISRDNAKNTVYLQMNSLKPEETAVYYCAAKIYIPRGYDYWGQGTQVTVSS | high polyreactivity
17 | QVQLVESGGGLVQAGGSLRLSSAASGRIFHPYAMGWYRPAPGQERELVAAITNSGGITYADSVKGRFTISRGNAKNTVYLQMNSLKPEDTAVYYCNTATNRFHYKYRKPYDYWGQGTQVTVSS | low polyreactivity
18 | QVQLVESGGGLVQAGGSLRLSCAASGRTFYPYVMGWYRQAPGKERELVARIRWSGSSTYYADSVKGRFTISRDNAKNTVYLQMNSLKPEDTAVYYCNARPSWYVFGSSVHSGMGYWGQGTQVTVSS | high polyreactivity
19 | QVQLVESGGGLVQAGGSLRLSCAASGNIFVWYDMGWYREAPGKERELVATITSSGGSTYYADSVKGRFTISRDNAKNTVYLQMNSLKPEDTAVYYCNALPYYRDDYWGQGTQVTVSS | low polyreactivity
20 | QVQIVESGGGLVQAGGSLRLSCAASGSTFGYYAMGWYRQAPGKERELVAAISWRGGSTYYADSVKGRFTISRDNAKNTVYLQMHILKPEYTAVYYCAAAIFITGYGSYGYWGLGTQVTVSS | low polyreactivity
21 | QVQLVESGGGLVQAGGSLRLSCAASGRIFGRNAMGWYRQAPGKERELVAAISSSGGTYYADSVKGRFTISRDNAKNTVYLQMNSLKPEDTAVYYCTARVRTQQRWVDYWGQGTQVTVSS | high polyreactivity
22 | QVQLVESGGGLVQAGGSLRLSCAASGRTFSQYAMGWYRQAPRKERELVAAISWGGRTYYADSVKGRFTISRDNAKNTVYLQMNSLKPEDTAVYYCAASSKLTYYEENHWGQGTQVTVSS | high polyreactivity

Row | Sequence | polyreactivity (PSR sort gate)
23 | QVQLVESGGGLVQAGGSLRLSCAASGLTFALYAMGWYRQAPGQERELVAAIDWSGGITYYADSVKGRFTISRDHAKNTVYLQMNSLKPEDTAVYYCAARPSTFKYKYGYWGQGTQVTVSS | high polyreactivity
24 | QVQLVDSEVGLVQAGGSHRLSCSASARTFGRYAMGWYRQAPGKERELVATIRWRVGSTYYADSVKGSFTISRDNAKNTVYLQMNSLKPEDTAVFYCAARRYSSGLTDDYWGQGTQVTVSS | high polyreactivity
25 | QVQLEESGGGLVQAGGSLRLSCAASGTTFGINCYGMYRQAPGKERELVAGISVSGGSTYYADSVNGRFTISRDNAYNTVYLQMNSLKPEDTAVYYCAAKWFNRDFDYWGQGTQVTVSS | low polyreactivity
26 | QVQLKESVGGLVQAGGILRLSCAASGNIFPTDRMAWYRQAPGTELEFVATISHGGSTNYADSVKGRFTISRDNSKNTLYLQMNSLKPEDTAVYYWWGWSLGRWRHYYWGQGTQVTVSS | low polyreactivity
27 | QVQLVESGGGLVQAGGSLRLSCAASGSTFYNYAMGWYRQAPGKERELVASISSSGGSTYADSVKGRFTISRDNAKNTVYLQMNSLKPEDTAVYYCARVRWIVPWYGPTDDYWGQGTQVTVSS | low polyreactivity
28 | QVQLVESGGGLVQAGGSLRLSCAASGGIISSYVMGWYRQAPGKERELVAAISRSGGSTYYADSVKGRFTISRDNAKNTVYLQMNSLKPEDTAVYFCAAVLQTRYNYWGQGTQVTVSS | high polyreactivity
29 | QVQLVESGGGLVQAGGSHRLSCAASGSTIAGNAMGWYRQAPGKERELVAVITRGGSTNYADSVKGRFTISRDNAKNTVYLQLNSLKPEDTAVYYCARYRFLLDYWGGGYYWGQGTQVTVSS | high polyreactivity
30 | QVQLVESGGGLVQAGGSLRLSCAASGNTFYRYAMGWYRQAPGKEREFVAGITSRGGSTSYADSVKGRFTISRDNAKNTVYLQMNSLKPEDTAVYYCAKKYFRPLRSYDYWGQGTQVTVSS | high polyreactivity
31 | QVQLVESGGGLVQAGGSLRLSCAASGNIFRKNAMGWYRQAPGKERELVAAISRRGGNTYYADSVKGRFTISRDNAKNTVYLQMNSLKPEDTAVYYCAADWSPTAASDYWGQGTQVTVSS | high polyreactivity
32 | QVQLVESAGGLVQAGGSLRLSCAASGSIFRAYSMGWYRQAPGKERELVAAISWGGGSTSYADSVKGRFTISRDNAKNTVYLQMNSLQPEDTAVYYCNKVSFSKRRDYYWGQGTQVTVSS | high polyreactivity
33 | QVQLVESGGGIVQAGGSLRLSCAASGFTFYRYAMGWYRQAPGKERELVAAITWSGGSTYYADSVKGRFTISRDNAKNTVYLQMNSLKPEDTAVYYCAADIYDGGFDYWGQGTQVTVSS | low polyreactivity
34 | QVQLVESVGGIVQAGGSLRLTCAASGSIIKRNAMGWYRQAPGKERELVATISSGDGSTRYADSVKGRFTISRDNAKNTVYLQMNSLKPEDTAVYYCARDFTYTYYRWKTPYRIGHDYWGQGTQVTVSS | low polyreactivity
35 | QVQLVESGGGLVQAGGSLRLSCAASGFIFYPYAMGWYRQAPGKERELVAVIRWSGGRTYYADSVKGRFTISRDNAKNTVYLQMNSLKPEDTSVYYCNARKITRYAVGPRKLGDYWGQGTQVTVTS | high polyreactivity
36 | QVQLVESGGGLVLAGGSLRLSCAASGFTFRKNAMGWYRQARGKERELVAAINSSGGSTYYADSVKGRFTISRDNAKNTVYLQMNSLKPEDTAVFYCNAVGRSLARPRGDYWGQGTQVTVSS | high polyreactivity
37 | QVQLVESGGGLVQAGGSLRLSCAASGSIFYINAMGCYRQAPGKEREMVAAITSDGSTYYADSVKGRFTISRDNAKNTVYLQMNSLNPEDTAVYYCAADLTSDQYMYYWYWFYSWGQGTQVPVSS | low polyreactivity
38 | QVQLVESGGGLVQAGGSLRLSCAASGITFPRYAMGWYRLAPGKERELVATITRSGGGTYYADSVKGRFTISRDNAKNTVYLQMKSLKPEDTAVYYCAAGALQRGVYGYGYWGQGTEVTVSS | high polyreactivity
39 | QVQLVESGGGLVQAGGSLRLSCAASGIIFYWYAMGWYRQAPGKERELVAAITRVGSTNYADSVKGRFTISRDNAKNTVYLQMNSLKPEDTAVYYCAADLWQRHYLVGFGIRYDYWGQGTQVTVSS | low polyreactivity
40 | QVQLVESGGGLVQAGGSLRLSCAASGSIFPVYAMGWYRQAPGKDRELDATITDGGGDTYYADSVMGRFTISRDNAKNTVYLQMNSLKPEDTAVLYCAARSIPEWSAYWYDYWGQGTQVTVSS | low polyreactivity
41 | QVQLVESGGGLVQAGGSLRLSCAASGRIFGVYAMGWYRPAPGKERELVAGINGGDSTYYADSVKGRFTISRDNAKNTVYLQMNSLKPEDTAVYYCAAEADESGSNYDYWGQGTQVTVSS | low polyreactivity
42 | QVQLVESGGGLVQAGGSLRLTCAASGFIFQNYAMGWYIQAPGKERELVSAIDFTDGSKYYADSVKGRYTISRDNAKNSVYLQMNSLKPEDTSVDYCNALDYLYGGIYLEEDYWGQGTQVTVSS | low polyreactivity
43 | QVHLVESGGPLVQAGGSLRLSCAASGRIFQINAMVWYRQAPGKERELVAGITGSGGSTDYADSVKGRFTISRDKSKNTVYLQMNSLKPEDTAVYYCAADTYTDGYDYWGQGTQVTVSS | low polyreactivity
